Data as given in IntAct's records for PubMed 35512704.

B1: Mothers against decapentaplegic homolog 4 (Homo sapiens), Q13485 (parent)
chain: MDNMSITNTPTSNDACLSIVHSLMCHRQGGESETFAKRAIESLVKKLKEKKDELDSLITAITTNGAHPSKCVTIQRTLDGRLQVAGRKGFPHVIYARLWRWPDLHKNELKHVKYCQYAFDLKCDSVCVNPYHYERVVSPGIDLSGLTLQSNAPSSMMVKDEYVHDFEGQPSLSTEGHSIQTIQHPPSNRASTETYSTPALLAPSESNATSTANFPNIPVASTSQPASILGGSHSEGLLQIASGPQPGQQQNGFTGQPATYHHNSTTTWTGSRTAPYTPNLPHHQNGHLQHHPPMPPHPGHYWPVHNELAFQPPISNHPAPEYWCSIAYFEMDVQVGETFKVPSSCPIVTVDGYVDPSGGDRFCLGQLSNVHRTEAIERARLHIGKGVQLECKGEGDVWVRCLSDHAVFVQSYYLDREAGRAPGDAVHKIYPSAYIKVFDLRQCHRQMQQQAATAQAAAAAQAAAVAGNIPGPGSVGGIAPAISLSAAAGIGVDDLRRLCILRMSFVKGWGPDYPRQSIKETPCWIEIHLHRALQLLDEVLHTMPIADPQPLD
partner: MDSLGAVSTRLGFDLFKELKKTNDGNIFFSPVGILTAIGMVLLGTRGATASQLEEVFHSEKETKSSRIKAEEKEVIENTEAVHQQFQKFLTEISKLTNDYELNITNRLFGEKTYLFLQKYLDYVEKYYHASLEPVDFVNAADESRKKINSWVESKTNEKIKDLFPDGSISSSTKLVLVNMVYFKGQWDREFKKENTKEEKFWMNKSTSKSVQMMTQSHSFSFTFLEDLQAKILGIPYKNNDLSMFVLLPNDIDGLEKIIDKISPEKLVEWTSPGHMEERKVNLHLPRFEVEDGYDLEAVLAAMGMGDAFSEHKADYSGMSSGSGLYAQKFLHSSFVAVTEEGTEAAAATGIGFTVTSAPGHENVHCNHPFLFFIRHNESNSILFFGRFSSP
B2: Mothers against decapentaplegic homolog 4 (Homo sapiens), Q13485 (parent)
chain: B1 chain
partner: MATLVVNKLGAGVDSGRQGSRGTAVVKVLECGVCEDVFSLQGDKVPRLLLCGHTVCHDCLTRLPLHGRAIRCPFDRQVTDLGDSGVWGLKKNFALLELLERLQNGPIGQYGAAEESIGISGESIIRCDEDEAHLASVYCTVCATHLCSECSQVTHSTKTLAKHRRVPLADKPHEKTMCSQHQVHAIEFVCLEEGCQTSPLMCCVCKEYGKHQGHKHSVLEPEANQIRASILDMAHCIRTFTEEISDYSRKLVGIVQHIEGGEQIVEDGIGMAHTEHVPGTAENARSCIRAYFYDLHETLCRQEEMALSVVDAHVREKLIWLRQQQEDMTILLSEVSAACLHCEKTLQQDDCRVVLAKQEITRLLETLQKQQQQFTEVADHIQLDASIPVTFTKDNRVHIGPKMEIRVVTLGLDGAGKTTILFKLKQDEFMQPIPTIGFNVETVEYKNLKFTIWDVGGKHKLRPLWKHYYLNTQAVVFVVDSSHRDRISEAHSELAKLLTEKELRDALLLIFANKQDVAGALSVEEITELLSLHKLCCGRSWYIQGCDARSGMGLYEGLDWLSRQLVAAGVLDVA
B3: Mothers against decapentaplegic homolog 4 (Homo sapiens), Q13485 (parent)
chain: B1 chain
partner: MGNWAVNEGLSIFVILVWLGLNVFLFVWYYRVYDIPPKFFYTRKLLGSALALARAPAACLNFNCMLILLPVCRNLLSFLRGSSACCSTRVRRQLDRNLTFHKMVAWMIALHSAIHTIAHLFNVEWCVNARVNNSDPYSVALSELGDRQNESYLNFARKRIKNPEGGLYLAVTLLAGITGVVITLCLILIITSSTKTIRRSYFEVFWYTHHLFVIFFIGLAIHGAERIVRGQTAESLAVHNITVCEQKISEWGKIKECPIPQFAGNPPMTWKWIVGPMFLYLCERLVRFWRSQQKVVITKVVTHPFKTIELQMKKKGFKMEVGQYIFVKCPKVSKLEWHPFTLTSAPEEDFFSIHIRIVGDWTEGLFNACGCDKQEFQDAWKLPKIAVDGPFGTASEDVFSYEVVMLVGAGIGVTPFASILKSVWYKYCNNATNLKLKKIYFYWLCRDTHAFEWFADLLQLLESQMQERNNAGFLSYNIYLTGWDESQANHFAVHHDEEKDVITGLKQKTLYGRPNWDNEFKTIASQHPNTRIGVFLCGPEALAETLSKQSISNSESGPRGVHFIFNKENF
B4: Mothers against decapentaplegic homolog 4 (Homo sapiens), Q13485 (parent)
chain: B1 chain
partner: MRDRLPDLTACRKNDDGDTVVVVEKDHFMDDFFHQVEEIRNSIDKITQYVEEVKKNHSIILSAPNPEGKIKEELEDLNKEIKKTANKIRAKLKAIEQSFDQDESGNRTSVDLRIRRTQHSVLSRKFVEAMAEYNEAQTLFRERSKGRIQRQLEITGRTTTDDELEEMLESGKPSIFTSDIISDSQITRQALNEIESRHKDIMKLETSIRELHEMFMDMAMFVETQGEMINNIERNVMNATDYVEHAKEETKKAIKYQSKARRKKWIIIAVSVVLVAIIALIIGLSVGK
B5: Mothers against decapentaplegic homolog 4 (Homo sapiens), Q13485 (parent)
chain: B1 chain
partner: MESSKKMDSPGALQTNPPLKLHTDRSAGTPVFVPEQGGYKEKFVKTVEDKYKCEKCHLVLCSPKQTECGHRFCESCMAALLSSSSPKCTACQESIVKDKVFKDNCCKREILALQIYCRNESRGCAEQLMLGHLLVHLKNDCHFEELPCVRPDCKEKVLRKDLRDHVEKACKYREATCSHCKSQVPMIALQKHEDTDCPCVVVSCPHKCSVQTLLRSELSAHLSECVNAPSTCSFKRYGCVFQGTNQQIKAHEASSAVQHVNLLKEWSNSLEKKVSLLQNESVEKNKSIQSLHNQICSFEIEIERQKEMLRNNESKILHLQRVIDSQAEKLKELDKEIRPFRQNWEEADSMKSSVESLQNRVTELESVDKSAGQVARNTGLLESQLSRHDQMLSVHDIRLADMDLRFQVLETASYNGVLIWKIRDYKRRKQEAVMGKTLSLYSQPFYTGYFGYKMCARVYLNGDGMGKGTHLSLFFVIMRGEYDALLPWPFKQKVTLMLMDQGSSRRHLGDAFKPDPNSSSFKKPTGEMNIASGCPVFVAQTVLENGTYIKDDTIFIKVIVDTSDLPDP
B6: Mothers against decapentaplegic homolog 4 (Homo sapiens), Q13485 (parent)
chain: B1 chain
partner: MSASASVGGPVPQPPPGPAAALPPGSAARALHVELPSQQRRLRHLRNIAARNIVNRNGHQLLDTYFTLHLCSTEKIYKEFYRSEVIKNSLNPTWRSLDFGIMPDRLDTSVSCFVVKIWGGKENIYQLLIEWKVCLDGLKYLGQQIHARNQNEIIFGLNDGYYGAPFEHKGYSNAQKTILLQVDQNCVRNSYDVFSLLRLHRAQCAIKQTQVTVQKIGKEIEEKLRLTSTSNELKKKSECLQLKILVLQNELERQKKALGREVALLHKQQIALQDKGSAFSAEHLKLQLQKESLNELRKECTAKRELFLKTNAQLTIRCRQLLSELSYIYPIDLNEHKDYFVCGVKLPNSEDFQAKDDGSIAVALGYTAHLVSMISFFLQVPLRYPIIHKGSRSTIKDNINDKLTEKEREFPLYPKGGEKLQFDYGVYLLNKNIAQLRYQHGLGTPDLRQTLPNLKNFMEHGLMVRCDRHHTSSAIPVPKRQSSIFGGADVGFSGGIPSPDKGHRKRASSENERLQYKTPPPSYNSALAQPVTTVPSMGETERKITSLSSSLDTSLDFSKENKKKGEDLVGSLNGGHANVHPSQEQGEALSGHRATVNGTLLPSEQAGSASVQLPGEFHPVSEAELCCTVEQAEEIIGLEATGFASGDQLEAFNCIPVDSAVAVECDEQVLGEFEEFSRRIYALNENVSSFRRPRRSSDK
B7: Mothers against decapentaplegic homolog 4 (Homo sapiens), Q13485 (parent)
chain: B1 chain
partner: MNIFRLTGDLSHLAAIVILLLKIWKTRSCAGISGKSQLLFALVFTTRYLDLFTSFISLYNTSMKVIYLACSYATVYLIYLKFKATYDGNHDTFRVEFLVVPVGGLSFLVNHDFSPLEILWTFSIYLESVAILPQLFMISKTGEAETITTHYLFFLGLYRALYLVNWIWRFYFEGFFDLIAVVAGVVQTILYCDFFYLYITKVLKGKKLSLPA
B8: Mothers against decapentaplegic homolog 4 (Homo sapiens), Q13485 (parent)
chain: B1 chain
partner: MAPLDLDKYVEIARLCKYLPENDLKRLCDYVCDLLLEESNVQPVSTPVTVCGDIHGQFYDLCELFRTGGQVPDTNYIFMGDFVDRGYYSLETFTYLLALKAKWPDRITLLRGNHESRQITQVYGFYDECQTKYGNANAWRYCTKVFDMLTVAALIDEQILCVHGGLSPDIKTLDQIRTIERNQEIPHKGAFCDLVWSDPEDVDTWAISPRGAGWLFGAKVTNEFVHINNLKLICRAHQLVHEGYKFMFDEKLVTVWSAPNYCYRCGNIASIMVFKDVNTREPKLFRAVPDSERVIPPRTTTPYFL
B9: Mothers against decapentaplegic homolog 4 (Homo sapiens), Q13485 (parent)
chain: B1 chain
partner: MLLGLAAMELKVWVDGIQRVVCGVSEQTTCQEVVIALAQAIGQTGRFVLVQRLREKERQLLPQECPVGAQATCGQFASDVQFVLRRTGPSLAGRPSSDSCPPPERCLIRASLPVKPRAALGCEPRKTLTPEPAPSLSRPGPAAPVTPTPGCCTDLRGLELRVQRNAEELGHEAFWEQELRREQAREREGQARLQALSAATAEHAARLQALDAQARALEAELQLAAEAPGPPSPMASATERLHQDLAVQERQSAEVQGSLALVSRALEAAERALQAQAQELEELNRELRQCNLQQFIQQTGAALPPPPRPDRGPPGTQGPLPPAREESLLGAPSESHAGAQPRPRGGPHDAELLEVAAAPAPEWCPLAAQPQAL

Variants of: B1
Conditions: with spb13_human SERPINB13, Q9UIV8

Row | Variant | effect of a mutation on the interaction
1 | G386D | with no effect

Variants of: B2
Conditions: with tri23_human TRIM23, P36406

Row | Variant | effect of a mutation on the interaction
2 | R361H | with no effect

Variants of: B2
Conditions: with tri23_human TRIM23, P36406
Remark: another data set of the same source

Row | Variant | effect of a mutation on the interaction
3 | R361C | with no effect

Variants of: B2
Conditions: with tri23_human TRIM23, P36406
Remark: another data set of the same source

Row | Variant | effect of a mutation on the interaction
4 | D351H | with no effect

Variants of: B2
Conditions: with tri23_human TRIM23, P36406
Remark: another data set of the same source

Row | Variant | effect of a mutation on the interaction
5 | G386D | with no effect

Variants of: B3
Conditions: with cy24b_human CYBB

Row | Variant | effect of a mutation on the interaction
6 | R361H | with no effect

Variants of: B4
Conditions: with stx2_human STX2, P32856

Row | Variant | effect of a mutation on the interaction
7 | G386D | with no effect

Variants of: B5
Conditions: with traf3_human TRAF3, Q13114

Row | Variant | effect of a mutation on the interaction
8 | G386D | with no effect

Variants of: B5
Conditions: with traf3_human TRAF3, Q13114
Remark: another data set of the same source

Row | Variant | effect of a mutation on the interaction
9 | D351H | with no effect

Variants of: B5
Conditions: with traf3_human TRAF3, Q13114
Remark: another data set of the same source

Row | Variant | effect of a mutation on the interaction
10 | R361C | with no effect

Variants of: B5
Conditions: with traf3_human TRAF3, Q13114
Remark: another data set of the same source

Row | Variant | effect of a mutation on the interaction
11 | R361H | with no effect

Variants of: B6
Conditions: with uvrag_human UVRAG

Row | Variant | effect of a mutation on the interaction
12 | D351H | with no effect

Variants of: B6
Conditions: with uvrag_human UVRAG
Remark: another data set of the same source

Row | Variant | effect of a mutation on the interaction
13 | G386D | with no effect

Variants of: B6
Conditions: with uvrag_human UVRAG
Remark: another data set of the same source

Row | Variant | effect of a mutation on the interaction
14 | R361C | with no effect

Variants of: B6
Conditions: with uvrag_human UVRAG
Remark: another data set of the same source

Row | Variant | effect of a mutation on the interaction
15 | R361H | with no effect

Variants of: B7
Conditions: with erd22_human KDELR2, P33947

Row | Variant | effect of a mutation on the interaction
16 | R361H | with no effect

Variants of: B7
Conditions: with erd22_human KDELR2, P33947
Remark: another data set of the same source

Row | Variant | effect of a mutation on the interaction
17 | R361C | with no effect

Variants of: B7
Conditions: with erd22_human KDELR2, P33947
Remark: another data set of the same source

Row | Variant | effect of a mutation on the interaction
18 | G386D | with no effect

Variants of: B8
Conditions: with ppp6_human PPP6C

Row | Variant | effect of a mutation on the interaction
19 | G386D | with no effect

Variants of: B8
Conditions: with ppp6_human PPP6C
Remark: another data set of the same source

Row | Variant | effect of a mutation on the interaction
20 | G386D | increasing interaction strength

Variants of: B8
Conditions: with ppp6_human PPP6C
Remark: another data set of the same source

Row | Variant | effect of a mutation on the interaction
21 | R361C | with no effect

Variants of: B9
Conditions: with rasf7_human RASSF7, Q02833

Row | Variant | effect of a mutation on the interaction
22 | D351H | with no effect

Variants of: B9
Conditions: with rasf7_human RASSF7, Q02833
Remark: another data set of the same source

Row | Variant | effect of a mutation on the interaction
23 | G386D | with no effect
